Assay results: the supplement of paper PMC12042874
± gives the uncertainty stated by the source.

assay: amyloid nucleation score (Sup35N fusion, yeast selection) (log enrichment); library NNK1; higher = more nucleation; inactive = no reads after selection
In short: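 Growth for 7 days at 30°C on medium lacking adenine and uracil followed a 24-hour induction with 100 μM copper sulfate of psi-negative yeast expressing peptides of 20 random codons fused to Sup35N. Input and output plasmid inserts were sequenced with Illumina, and sequences with under 100 input reads were excluded. Nucleation score is the DiMSum log enrichment of output over input reads, centred on the mode score of non-aggregating sequences.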

Row | Substance | amyloid nucleation score
1 | TSLPTAVWLKSARQWVEYGL | 1.18 ± 0.54
2 | CHNVVLFVVTQSMCEVSGGW | inactive
3 | DFFRSANMYLGFASGGEGNG | 0.77 ± 0.52
4 | INYNWCQTRG | -0.867 ± 0.39
5 | LRPKWVAGDVLFQIYPWTRR | 0.629 ± 0.85
6 | SCDVTILGYLAMMKLDVMWV | -0.074 ± 0.34
7 | INELNTLLGI | 0.498 ± 0.97
8 | YVEQYLWDSDWSSGI | 0.974 ± 0.14
9 | DRREGF | -0.892 ± 0.32
10 | GCNSMTRLLRGAWPPPYWRG | 0.274 ± 0.77
11 | RQDARE | 0.004 ± 0.42
12 | LSEIFSCENGVVGSNSETLT | -0.107 ± 0.35
13 | GSSGAWVCSGCL | -0.626 ± 1.2
14 | IGFFPQDSYGFGLRTEINGL | 0.145 ± 0.69
15 | RIHRVHRKF | -0.33 ± 0.38
16 | TKCHIQLYIALASVAGGSGF | 2.36 ± 0.29
17 | LWHFWGYGGALP | -0.738 ± 0.75
18 | QMGIMFALILQMYFSKFQDW | -0.182 ± 0.21
19 | SDFLTWCDQSLRCVDRYPNA | 0.648 ± 0.97
20 | SDRGSKPMSVYNLRC | 0.305 ± 0.75
21 | THDAFF | 0.642 ± 0.48
22 | RLNWVYSRNNASLSGVYMKR | 0.116 ± 0.24
23 | RVCKFKFYQFSSSKC | 3.75 ± 0.067
24 | FCNNATSTQGNVFSGLLWTL | -0.202 ± 0.27
25 | ELTCWSGDGGVGGILVNVWT | 0.565 ± 0.47
26 | LVQVWLKN | 0.43 ± 0.34

Row | Substance | amyloid nucleation score
27 | ASVVSCQQSYLRWQEIL | -0.316 ± 0.74
28 | RVTPISCKYVLLTPMRLKNR | 2.35 ± 0.3
29 | TLCREEVETRLEATFCGCTN | 0.979 ± 0.84
30 | GVLNVL | -0.418 ± 0.62
31 | LQFNMVYVCYGWSSVYARSG | 0.409 ± 0.28
32 | ENDVSQPVRLTVVTRWSWYT | 0.229 ± 0.53
33 | QLPAFGINMSRLSNSCSYGC | 0.095 ± 0.59
34 | REPIYFSVSMIWGTLASPVT | -0.447 ± 0.98
35 | YWGPKDAMGMSFIVSWDGPP | 0.367 ± 0.31
36 | IKEFLKACNHHEPMPGNLMR | -0.005 ± 0.54
37 | FYRNIIKINMMVLWISWGHV | 0.185 ± 0.79
38 | IKTMISQY | -0.406 ± 0.25
39 | RINVYII | 3.25 ± 0.19
40 | RFVLKYSSFFMFTIRWCVVV | -0.027 ± 0.44
41 | YTRRVTNDVNNFGTFTRMSS | 1.02 ± 0.27
42 | RPRHIFDNSKVYNMGPYFYD | 1.59 ± 0.56
43 | LAISL | -0.444 ± 0.36
44 | ANRYRVLKE | 3.88 ± 0.095
45 | FEERFMFYTNIDNLLYPLSA | 0.848 ± 0.42
46 | FGCNELNR | 0.826 ± 0.5
47 | LTEDPGIRSSQR | 0.055 ± 1
48 | LMHRFPSINRLHTAPMPRAT | 0.58 ± 1.1
49 | RNYTVKKMNLC | inactive
50 | VDLALLYCDIKMQLV | 1.14 ± 0.88
51 | VSSLWFKDYQYVFDDCYAKP | -0.258 ± 0.56
52 | LLLYDPREC | -1.46 ± 0.91

Row | Substance | amyloid nucleation score
53 | VVTEKGLPWARQW | -0.205 ± 0.33
54 | VGFYCHLCGYLVWGRWKHSA | 1.18 ± 0.97
55 | TNFLKSFHV | -1.95 ± 1.8
56 | FGMIFFLLTMALRDVCVRLR | 7.24 ± 0.084
57 | VELQYDLYCFSSFADPLS | 1.29 ± 0.6
58 | SGSLGS | 0.386 ± 0.84
59 | EWGNRRVFYVVMDGSRCPAS | 0.1 ± 0.16
60 | VCIIIVYRIYLSYMCPISY | -0.463 ± 0.37
61 | CNVGLKVYLADISSGSVCYL | 4.39 ± 0.075
62 | KWVIGRTVLGRADVRWSSGR | 1.58 ± 0.46
63 | GSSFGFDYFDAHPMYLVTSY | 1.37 ± 0.48
64 | ITKGAPSLYYMCRRGEDACS | 0.523 ± 0.44
65 | RGSTLSGVYCAENRASGFDS | 0.93 ± 0.33
66 | SNGCPFDTIDQAKVGTVV | 0.861 ± 0.68
67 | RLNNRRFLSWRCTNNQCWRV | -0.159 ± 0.86
68 | LLIVYYNVDITQCRWFTELC | -0.16 ± 0.58
69 | YIVTTLQYDRSLASKVDEGT | -0.489 ± 0.56
70 | VKGQHFQLKIVRRLRTFRHH | 3.79 ± 0.066
71 | VYRCCLKAVCFIDVVTGLWG | -0.173 ± 0.71
72 | MGGLRVYRPCVER | -0.437 ± 0.71
73 | APNTEMGFEGLRELQVLPVV | -0.854 ± 1.1
74 | SSRNRV | -1.07 ± 0.59
75 | KKWHNVIGARDLSRIYSIA | inactive
76 | CWPSRQF | 0.373 ± 0.94
77 | VDLSLLIMVFQFGGVGERLR | 2.15 ± 0.17
78 | WNGTFNVPWSFDFRCSWVGK | 0.719 ± 0.79

Row | Substance | amyloid nucleation score
79 | MEGRVMGKRVAVY | -0.155 ± 0.59
80 | LHIIRRNRDSIAFVYWTV | 0.756 ± 0.41
81 | GVGWVDGWSGSCFHWTGWCT | 3.46 ± 0.078
82 | RIMMMGQLTFVYMGQHSSMV | -0.062 ± 0.57
83 | GLNDYIKVFLYFDSVNRYLD | -0.694 ± 1.1
84 | GAFGFITNRKRINCKLEDRD | -1.32 ± 2.4
85 | REGNVSYYSFGL | -1.48 ± 1.4
86 | SNLRSVMKRNYTVRLFCVG | inactive
87 | SFYYIWRGLVTSED | -0.779 ± 0.8
88 | LSMGLR | 0.388 ± 0.68
89 | REEAVSVGHSRFGFWIVFGG | -0.264 ± 0.36
90 | QCHVVDFRRKYLELRSSLRY | inactive
91 | VMFTTRSWSGDNVFLCV | inactive
92 | CHELLALDLLSMRNS | 0.416 ± 0.55
93 | DRGDLAFSFSGQRTGGKEPR | -0.219 ± 0.51
94 | VYSMWTERQFLGMILGGEAG | -0.091 ± 0.85
95 | IMRRVLAFSCN | -0.538 ± 0.34
96 | SLFQGERIPFGWNEGQTKDV | -0.469 ± 1.2
97 | WFGYNIGPK | 2 ± 0.28
98 | RDVCLQSGMVVFYF | 6.905 ± 0.061
99 | RYTLILH | -0.355 ± 0.75
100 | MNKQAFNGRM | inactive
101 | RRNVYFYVWYVSPNVMKYSN | 3.84 ± 0.1
102 | VPNEYGNSEVRLLDLLGDLE | -0.435 ± 0.36
103 | MMSSFDVWDS | -0.077 ± 0.73
104 | EIIET | 0.534 ± 0.34

Row | Substance | amyloid nucleation score
105 | FSVNP | 1.22 ± 0.69
106 | QISSTRIDW | -0.074 ± 0.32
107 | SNFKK | -1.06 ± 0.64
108 | SYESSLNGRISFRNGERLLC | 0.115 ± 0.42
109 | RIFFYTISYPLILIKVFCYL | inactive
110 | FVSNGSYVGIS | -0.42 ± 0.51
111 | VLGYAFYCYLCRNLRRNNFS | 0.864 ± 0.53
112 | GIYCLYFDILEVFLYTTTLS | 0.27 ± 0.42
113 | QHTFQAMISKSNVSEMSPGT | -0.174 ± 0.59
114 | VLGMAEATADFSPIWVSKCS | 0.455 ± 1.4
115 | HWSMCRTGFWSLYKMDVTQT | 0.833 ± 0.7
116 | NCVRSCISMQVYCTPAVVMY | 5.483 ± 0.053
117 | SAAYQALLTNSYFSLFDVSW | 0.823 ± 0.21
118 | TAVIKLSCLSLFMNSIMLVY | 2.59 ± 0.12
119 | YSAITNGSFQVLV | 0.17 ± 0.21
120 | PTSLLLGINYCLFWSIYLRD | 1.81 ± 0.16
121 | QNSENMFDINVLTWGCHMAM | inactive
122 | EALCHMWQYSGCP | 0.324 ± 0.66
123 | DYESKSNFPYTQVNAITW | -1.05 ± 1.2
124 | SFHLSQFYKNTHMWLIVFES | inactive
125 | GGTWPYTAVRWVIWRLWGEG | 0.129 ± 0.64
126 | WIILVHGGGKRLSVNIHLLC | -0.713 ± 0.32
127 | NVRALILIKNCSPQMLRNEF | 5.07 ± 0.06
128 | GCRTLHGGAVDKLYTWCHLA | 0.504 ± 0.92
